Measured values from the nanobody polyreactivity screen of Harvey et al. (2022).

Assay: yeast display, Sf9 membrane polyspecificity reagent, FACS + sequencing; frameworks hold sequencing errors
Summary of the method: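 Galactose-induced (36–48 hours) yeast carrying a synthetic nanobody display library were exposed to 10% biotinylated, detergent-solubilized Sf9 membrane reagent at 4 °C for 1 hour. FACS followed streptavidin microbead enrichment, using low and high (top ~1%) gates for expression (anti-HA) and reagent binding (streptavidin). Colony PCR, MiSeq 2 × 250 sequencing and CDR-length filtering followed. Labels for polyreactivity reflect the gate of origin.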

| Sequence | polyreactivity (PSR sort gate) |
| --- | --- |
| QVQLVESGGGLVQAGGSLRLSCAASGYTFPRYAMGWYRQAPGKERELVATINWTGSNTYADSVKGRFTISRDNAKNTVYLQMNSLKPEDTAVYYCAKDSWNVRSGRYNYWGQGTQVTVSS | low polyreactivity |
| QVQLVESGGGLVQAGGSLRLSCAASGYTFPVYAKGWYRQASRKERELVATSTSGGSTNYADSVKGRFTISRDNAKNTVYFQMNSLKPEDTAVYYCAADRALSISLYPIASFYYWGQGTQVTVSS | low polyreactivity |
| QVQLVESGGGLVQAGGSLRLSCAASGYTFPYYTMGWYRQAPGKERELVATITRRGDSTYYADSVKGRFTLSRDNAKNTVYLQMNSLKPEDTAVYYCNTASYGRHQFRKSSKMDYWGQGTQVTVSS | high polyreactivity |
| QVQLVESGGGLVQAGGSLRLSCAASGYTFQYNSMGWYRQAHGKERELVATISNRGTSTYYADSVKGRFTISRDNAKKTVYLQMNSLKPEDTAVYYCAKSRWSLYSSGVWSRRHFYYWGHGTQVTVSS | high polyreactivity |
| QVQLVESGGGLVQAGGSLRLSCAASGYTFRFNAMGWYRQAPGKEREFVAAIDFGGAGTYYADSVKGRFTISRDNATNTVYVQMNSLKPEDTAVYYCNARDGVTTEFDYWGQGTQVTVSS | low polyreactivity |
| QVQLVESGGGLVQAGGSLRLSCAASGYTFRGYAMGWYRQAPGKERELVAAISWSGGRTYYADSVKVRFTISRDNAKNTVYLQMNSLKPEDTAVYYCDAETHVGWPAKFDYWGQGTQVTVSS | high polyreactivity |
| QVQLVESGGGLVQAGGSLRLSCAASGYTFRYYAMGWYRQAHGKERELVAAITSSTSSTYYADSVKGRFTISRDNAKNTVYLQMNSLKPEDTAVYYCNRVWSTSMDYWGEGTQVTVSS | high polyreactivity |
| QVQLVESGGGLVQAGGSLRLSCAASGYTFRYYAMGWYRQAHGKERELVDDINSGDITNYADSVKGRFTISRDNAKYTVYLQMNSLKTEDTAVYYCARRTFSLYDYWGQGTQVTVSS | low polyreactivity |
| QVQLVESGGGLVQAGGSLRLSCAASGYTFRYYAMGWYRQAPGKDRELVAVISSGGSTKYADSVKGRFTNSRDNAKNTVYLQMNSLKPEDTAVYYCAARYRSLYNYWGQGTQVTVSS | high polyreactivity |
| QVQLVESGGGLVQAGGSLRLSCAASGYTFRYYAMGWYRQAPGKERELVAAITWSGGSTYYADSVKGRFTISRDNAKNTVYLQMNSLKPEDTAVYYCATDSARVGNFPDPQFDYWGQGTQVTVSS | low polyreactivity |
| QVQLVESGGGLVQAGGSLRLSCAASGYTFSDNAMGWYRQAPGKERELVAAITSGVSTYYADSVKGRFTISRDNAKNTVYLQMNSLKPEDTAVYYCAKDVAVYADLYQGAPYGYWGQGTQVTVSS | low polyreactivity |
| QVQLVESGGGLVQAGGSLRLSCAASGYTFSFYAMGWYIQAPGKERELVATISWRGGSTYYADSVKGRFTISRDNAKNTVYLQMNSLKPEDTAVYYCNIVDKTGSKMDYWGQGTQVTVSS | high polyreactivity |
| QVQLVESGGGLVQAGGSLRLSCAASGYTFSLNAMGWYRQAPGKERELVAAIRGGGSTNYADSVKGRFTISRDNAKKTVYLQMNSLKPEDTAVYYCAASSYNGHVYWGQGTQVTVSS | low polyreactivity |
| QVQLVESGGGLVQAGGSLRLSCAASGYTFSRNAMGWYRPAPGKERELVAAITGSGGSTYYADSVKGRFTISRDNAKNTVYLQMNSLKPEDTAVYYCASKYYGRSFYYGYDYWGQGTQVTVSS | low polyreactivity |
| QVQLVESGGGLVQAGGSLRLSCAASGYTFSRNAMGWYRQAPGKERELVADINYSGGITYYADSVKGRFTISRDNAKNTVYLQMNSLKPEDTAVYYCAAVATNVPTHGRPSRRAYDYWGQGTQVTVSS | low polyreactivity |
| QVQLVESGGGLVQAGGSLRLSCAASGYTFSRYAMGWYRQAPGKERELVAAISHSAGRTYYADSVKGRFTISRDNAKNTVYLQMNSLKPEDTAVYYCATAYKPDTRDDYWGQGTQVTVSS | high polyreactivity |
| QVQLVESGGGLVQAGGSLRLSCAASGYTFSRYAMGWYRQAPGKERELVAAITSRGGRTYYADSVKVRFTISRDNAKNTVFLQMNSLKPEDNAVYYCAADVIFWRTGYDYWGPGTQVTVSS | high polyreactivity |
| QVQLVESGGGLVQAGGSLRLSCAASGYTFTHYAMGWYRQAPGKERELVASISQSGGSTYYPDSVKGSFTISRDNAQYTVYGQMNSLKPEDTAVYYCAVDYYYDQSLYEYCGQGTQVTVSS | high polyreactivity |
| QVQLVESGGGLVQAGGSLRLSCAASGYTFTSNAMGWYRQAPGKERELVAAISRSGVSTSYADSVKGRFTISRDNAKNTVYLQMNSLKPEDSAVYYCNRYYWDPTHPRYDSWGQGTQVTVSS | high polyreactivity |
| QVQLVESGGGLVQAGGSLRLSCAASGYTFTSNAMGWYRQAPGKERELVADISTGVDSTYYADSVKGRFTISRDNAKNTVYLQMNSLKPEDTAVYYCNADILVAWYDEPFDYWGQGTQVTVSS | low polyreactivity |
| QVQLVESGGGLVQAGGSLRLSCAASGYTFVWYAMGWYRQAPGKERELVAAISASGGSTYYADSVKGRFTISRDNAKNTVYLQMNSLKPEDTAVYYCNAVGALSVYGGNGYWGQGTQVTVSS | high polyreactivity |
| QVQLVESGGGLVQAGGSLRLSCAASGYTFWQYAMGWYRQAPGKERELVATITSRGGSTYYADSVKGRFTISRDNAKNTVYLQMNSLKPEDSAVYYCNARRRYSTRRSDYWGQGTQVTVSS | high polyreactivity |

| Sequence | polyreactivity (PSR sort gate) |
| --- | --- |
| QVQLVESGGGLVQAGGSLRLSCAASGYTFYANAMGWYRQAPGKEREFVASITWSGGSTYYADSVKGRFTISRDNAKNTVYLQMNSLKPEDTAVYYCNTDLTYPYPNVEVLVYGFKLDYWGQGTQVTVSS | low polyreactivity |
| QVQLVESGGGLVQAGGSLRLSCAASGYTFYANAMGWYRQAPGKEREFVASNTWSGGSTYYADSVKGRFTISRDTAKITVYLQMNSLKPEDTAVYYWAAESWFNYDYWGQGTQVTVSS | low polyreactivity |
| QVQLVESGGGLVQAGGSLRLSCAASGYTFYIYAMGWSRQAPGKERELVATISSSGGGTYYADSVKGRFTISRDNAKNTVYFQMYSQKPEDTAVYDCNAAGWYWQAEGYDYWGQGTQVTVSS | low polyreactivity |
| QVQLVESGGGLVQAGGSLRLSCAASGYTFYKYAMGWYRQAPGKEREFVADITQSGGSTYYADSVKGRFTISRDNAKNTVYLQMNSLKPEDTAVYYCNAAYSYRPDPKGYDYWGQGTQVTVSS | low polyreactivity |
| QVQLVESGGGLVQAGGSLRLSCAASGYTFYRYAMGWYRQAPGKERELVARISRSGGSTFYADSVKGRFTISRDNAKNTVYLQMNSLKPEDTAVYYCNAKQYSPYYLVIYHYWGQGTQVTVSS | high polyreactivity |
| QVQLVESGGGLVQAGGSLRLSCAASGYTFYRYTMGWYRQAPGKERELVAAINSGGSTNYADSLKGRFTISRDNAKYTVYLQMNSLKPEDTAVYYCARRYQTWPRWYDYWGQGTQVTVSS | high polyreactivity |
| QVQLVESGGGLVQAGGSLRLSCAASGYTIDGYAMGWYRQAPGKERELVAGISSAGTTNYADSVKGRFTISRDNAKNTVYLQMNSLKPEDTAVYYCNKDYSTYWLYTWQITVADDYWGQGTQVTVSS | low polyreactivity |
| QVQLVESGGGLVQAGGSLRLSCAASGYTIISYGMGWYTQAPGKERELVAAISSGDRTNYADSVKGRFTISRDNAKNTVYLQMNSLKPEDTAVYYCNADRASSSVGYSDEFGHDSWGQGTQVTVSS | low polyreactivity |
| QVQLVESGGGLVQAGGSLRLSCAASGYTINPYAIGWYRQAPGKERELVATIRSSGSTNYADSVKGRFTISRDNAKYTVYLQRNSLKPEDTAVYYFAARTSGRTVRYYYWGQGTQVTVSS | high polyreactivity |
| QVQLVESGGGLVQAGGSLRLSCAASGYTIRNYAMGWYRQAPGTERELVAAIRGSGGSTYYADSVKGRFTISRDNAKNTVYLQMNSLKPEDTAVDYCNADQLVWQRYGVLYEYDYWGQGTQVTVSS | high polyreactivity |
| QVQLVESGGGLVQAGGSLRLSCAASGYTLSVNAMGWYRQAPGKERELVATIDFGGGSTYYADSVKGRFTISRDNAKNTVYLKMNSLKPEDTAVYYCNTEWTSLSKSSLGGRYDHWGQGTQVTVSS | low polyreactivity |
| QVQLVESGGGLVQAGGSLRLSCAASGYTLVGYAMGWYRQAPGKEMELVAVISGSGGSTRYADSVKGRFTISRDNAKYTVYLQMNSLNPEDTAVYYCAARQPRTQAVYEGYYWGQGTQVTVSS | high polyreactivity |
| QVQLVESGGGLVQAGGSLRLSCAASGYTVYANAMGWYRQAPGKEREFVASITWSGGSTYYADSVKGRFSISRDNAKNPVYLQMNSLKPEDTAVYYCAAESWFKYDYWGQGTQVTVSS | low polyreactivity |
| QVQLVESGGGLVQAGGSLRLSCAASNSSINAMGWYRQAPGKERELVAAIRWSGSSTYYADSEKGRFPISRDNAKTTVYLQMNSLKPEDTAVYYCAADTTTGDRGFDYWGQGTQVTVSS | high polyreactivity |
| QVQLVESGGGLVQAGGSLRLSCAASRFIFQPYAMGWYRQAPGKERELVAAITSRGGRTYYADSVKGRFTISRDNAKNTVYLKMNSLKPEDSAVYYCNADIYASEYYYWGQGTQVTVSS | low polyreactivity |
| QVQLVESGGGLVQAGGSLRLSCAASRFTFLTNAMGWYRKAPGTERELVAAISSGGNTNYADSVKGRFTISRDNAKNTVYLQMNSLKPEDTAVYYCAADNDYLSSQVSYDYWGQGTQVTVSS | low polyreactivity |
| QVQLVESGGGLVQAGGSLRLSCAASRFTFVRYAMGWYRQAPGKEREFVASISARGGNTFYADSVKGRFTISRDNAKNTVYLQMNSLKPEDTAVYYCAASRRVGEVSYYYWGQGTQVTVSS | high polyreactivity |
| QVQLVESGGGLVQAGGSLRLSCAASRFYTMGWYRPAPGKERELVAAISWSGGDTYYADSVKGRYTISRDNAKNTVYLQMNSLKPEDPAVFYCNKDYSFEYSLRHRDYWGQGTQVTVSS | low polyreactivity |
| QVQLVESGGGLVQAGGSLRLSCAASRIFAYYTMGWIRQSPGKERELVAAITYSGGSTFYADSVKGRFTISRDNAKNTVYLQMNRLKPEDSSVYYCNAVVRNYGYDYWGQGTQVTVSS | high polyreactivity |
| QVQLVESGGGLVQAGGSLRLSCAASRIFRGYAMGWYRQAPGKERELVAAIDRGVSTYYADSVKGRFTISRDNAKNTVYLQMNSRKPEDTAVYYCAVEYWEPYDMDYWGQGTQVTVSS | high polyreactivity |
| QVQLVESGGGLVQAGGSLRLSCAASRLIVYQNAMGWYRQAPGKEREFVAAISWSGGRTYYADSVKGRFTISRDNAKNTVYLQMNSLKPEDTAVYYCAARFTYYTYEFEYWGQGTQVTVSS | high polyreactivity |
